Test results reported in the supplement of paper PMC5998384.

Columns and labels:
[1] = test system: HeLa Kyoto; experiment: solubility in G1/S (NP-40 vs SDS abundance) (log2 ratio); higher = more soluble; conditions: cell cycle stage: G1/S
[2] = test system: HeLa Kyoto; experiment: melting temperature (median over replicates), in situ; higher = more thermally stable
[3] = test system: HeLa Kyoto; experiment: solubility change mitosis vs G1/S (difference of NP-40 vs SDS log2 ratios) (log2 ratio difference); higher = more soluble in mitosis
[4] = test system: HeLa Kyoto; experiment: thermal stability score vs G1/S (z-score of summed log2 fold changes over temperatures); higher = more thermally stable than in G1/S
[5] = cell cycle stage: early G1 (4.5 h after nocodazole release)
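Throughout, for melting temperature (median over replicates), in situ: HeLa Kyoto cells synchronized by double thymidine or nocodazole block, proteins quantified by TMT10plex mass spectrometry, three independent biological replicates.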
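Throughout, for solubility change mitosis vs G1/S (difference of NP-40 vs SDS log2 ratios): synchronized HeLa Kyoto cells (double thymidine block for G1/S, nocodazole release for mitosis), protein amounts in NP-40 versus SDS lysates quantified by mass spectrometry, three biological replicates.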
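Throughout, for solubility in G1/S (NP-40 vs SDS abundance): HeLa Kyoto cells arrested at G1/S by double thymidine block, proteins quantified by TMT10plex mass spectrometry in mild NP-40 versus SDS extracts, three biological replicates.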
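Throughout, for thermal stability score vs G1/S (z-score of summed log2 fold changes over temperatures): synchronized HeLa Kyoto cells, proteins quantified by TMT10plex mass spectrometry, three biological replicates, mitosis taken 0.5 h after nocodazole release, G1/S directly after double thymidine block.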

Row | Sequence | solubility in G1/S (log2) [1] | melting temperature ([2]; cell cycle stage: G1/S) [°C] | melting temperature ([2]; cell cycle stage: mitosis) [°C] | solubility change mitosis (log2) [3] | thermal stability score [4, 5] | thermal stability score ([4]; cell cycle stage: mitosis)
1 | MATGGYRTSSGLGGSTTDFLEEWKAKREKMRAKQNPPGPAPPGGGSSDAAGKPPAGALGTPAAAAANELNNNLPGGAPAAPAVPGPGGVNCAVGSAMLTRAAPGPRRSEDEPPAASASAAPPPQRDEEEPDGVPEKGKSSGPSARKGKGQIEKRKLREKRRSTGVVNIPAAECLDEYEDDEAGQKERKREDAITQQNTIQNEAVNLLDPGSSYLLQEPPRTVSGRYKSTTSVSEEDVSSRYSRTDRSGFPRYNRDANVSGTLVSSSTLEKKIEDLEKEVVRERQENLRLVRLMQDKEEMIGKLKEEIDLLNRDLDDIEDENEQLKQENKTLLKVVGQLTR [PAWR] | 0.552 | 60.6 | 55.7 | 0.127 | -0.931 | -1.76
2 | MATGQKLMRAVRVFEFGGPEVLKLRSDIAVPIPKDHQVLIKVHACGVNPVETYIRSGTYSRKPLLPYTPGSDVAGVIEAVGDNASAFKKGDRVFTSSTISGGYAEYALAADHTVYKLPEKLDFKQGAAIGIPYFTAYRALIHSACVKAGESVLVHGASGGVGLAACQIARAYGLKILGTAGTEEGQKIVLQNGAHEVFNHREVNYIDKIKKYVGEKGIDIIIEMLANVNLSKDLSLLSHGGRVIVVGSRGTIEINPRDTMAKESSIIGVTLFSSTKEEFQQYAAALQAGMEIGWLKPVIGSQYPLEKVAEAHENIIHGSGATGKMILLL [CRYZ] | 0.212 | 55.2 | 55 | -0.187 | -0.614 | -0.806
3 | MATHGQTCARPMCIPPSYADLGKAARDIFNKGFGFGLVKLDVKTKSCSGVEFSTSGSSNTDTGKVTGTLETKYKWCEYGLTFTEKWNTDNTLGTEIAIEDQICQGLKLTFDTTFSPNTGKKSGKIKSSYKRECINLGCDVDFDFAGPAIHGSAVFGYEGWLAGYQMTFDSAKSKLTRNNFAVGYRTGDFQLHTNVNDGTEFGGSIYQKVCEDLDTSVNLAWTSGTNCTRFGIAAKYQLDPTASISAKVNNSSLIGVGYTQTLRPGVKLTLSALVDGKSINAGGHKVGLALELEA [VDAC2] | -0.125 | 59.9 | 60.3 | -0.0952 | -1.16 | -4.22
4 | MATKCGNCGPGYSTPLEAMKGPREEIVYLPCIYRNTGTEAPDYLATVDVDPKSPQYCQVIHRLPMPNLKDELHHSGWNTCSSCFGDSTKSRTKLVLPSLISSRIYVVDVGSEPRAPKLHKVIEPKDIHAKCELAFLHTSHCLASGEVMISSLGDVKGNGKGGFVLLDGETFEVKGTWERPGGAAPLGYDFWYQPRHNVMISTEWAAPNVLRDGFNPADVEAGLYGSHLYVWDWQRHEIVQTLSLKDGLIPLEIRFLHNPDAAQGFVGCALSSTIQRFYKNEGGTWSVEKVIQVPPKKVKGWLLPEMPGLITDILLSLDDRFLYFSNWLHGDLRQYDISDPQRPRLTGQLFLGGSIVKGGPVQVLEDEELKSQPEPLVVKGKRVAGGPQMIQLSLDGKRLYITTSLYSAWDKQFYPDLIREGSVMLQVDVDTVKGGLKLNPNFLVDFGKEPLGPALAHELRYPGGDCSSDIWI [SELENBP1] | 0.265 | 59.7 | 60.9 | -0.131 | -0.479 | -0.737
5 | MATKGGTVKAASGFNAMEDAQTLRKAMKGLGTDEDAIISVLAYRNTAQRQEIRTAYKSTIGRDLIDDLKSELSGNFEQVIVGMMTPTVLYDVQELRRAMKGAGTDEGCLIEILASRTPEEIRRISQTYQQQYGRSLEDDIRSDTSFMFQRVLVSLSAGGRDEGNYLDDALVRQDAQDLYEAGEKKWGTDEVKFLTVLCSRNRNHLLHVFDEYKRISQKDIEQSIKSETSGSFEDALLAIVKCMRNKSAYFAEKLYKSMKGLGTDDNTLIRVMVSRAEIDMLDIRAHFKRLYGKSLYSFIKGDTSGDYRKVLLVLCGGDD [ANXA4] | 0.48 | 50.1 | 50.2 | 0.0251 | 5.77 | 4.03
6 | MATLITSTTAATAASGPLVDYLWMLILGFIIAFVLAFSVGANDVANSFGTAVGSGVVTLKQACILASIFETVGSVLLGAKVSETIRKGLIDVEMYNSTQGLLMAGSVSAMFGSAVWQLVASFLKLPISGTHCIVGATIGFSLVAKGQEGVKWSELIKIVMSWFVSPLLSGIMSGILFFLVRAFILHKADPVPNGLRALPVFYACTVGINLFSIMYTGAPLLGFDKLPLWGTILISVGCAVFCALIVWFFVCPRMKRKIEREIKCSPSESPLMEKKNSLKEDHEETKLSVGDIENKHPVSEVGPATVPLQAVVEERTVSFKLGDLEEAPERERLPSVDLKEETSIDSTVNGAVQLPNGNLVQFSQAVSNQINSSGHYQYHTVHKDSGLYKELLHKLHLAKVGDCMGDSGDKPLRRNNSYTSYTMAICGMPLDSFRAKEGEQKGEEMEKLTWPNADSKKRIRMDSYTSYCNAVSDLHSASEIDMSVKAEMGLGDRKGSNGSLEEWYDQDKPEVSLLFQFLQILTACFGSFAHGGNDVSNAIGPLVALYLVYDTGDVSSKVATPIWLLLYGGVGICVGLWVWGRRVIQTMGKDLTPITPSSGFSIELASALTVVIASNIGLPISTTHCKVGSVVSVGWLRSKKAVDWRLFRNIFMAWFVTVPISGVISAAIMAIFRYVILRM [SLC20A1] | -0.24 |  | 55.9 | -0.149 | 0.26 | -0.79
7 | MATLLSHPQQRPPFLRQAIKIRRRRVRDLQDPPPQMAPEIQPPSHHFSPEQRALLYEDALYTVLHRLGHPEPNHVTEASELLRYLQEAFHVEPEEHQQTLQRVRELEKPIFCLKATVKQAKGILGKDVSGFSDPYCLLGIEQGVGVPGGSPGSRHRQKAVVRHTIPEEETHRTQVITQTLNPVWDETFILEFEDITNASFHLDMWDLDTVESVRQKLGELTDLHGLRRIFKEARKDKGQDDFLGNVVLRLQDLRCREDQWYPLEPRTETYPDRGQCHLQFQLIHKRRATSASRSQPSYTVHLHLLQQLVSHEVTQHEAGSTSWDGSLSPQAATVLFLHATQKDLSDFHQSMAQWLAYSRLYQSLEFPSSCLLHPITSIEYQWIQGRLKAEQQEELAASFSSLLTYGLSLIRRFRSVFPLSVSDSPARLQSLLRVLVQMCKMKAFGELCPNTAPLPQLVTEALQTGTTEWFHLKQQHHQPMVQGIPEAGKALLGLVQDVIGDLHQCQRTWDKIFHNTLKIHLFSMAFRELQWLVAKRVQDHTTVVGDVVSPEMGESLFQLYISLKELCQLRMSSSERDGVLALDNFHRWFQPAIPSWLQKTYNEALARVQRAVQMDELVPLGELTKHSTSAVDLSTCFAQISHTARQLDWPDPEEAFMITVKFVEDTCRLALVYCSLIKARARELSSGQKDQGQAANMLCVVVNDMEQLRLVIGKLPAQLAWEALEQRVGAVLEQGQLQNTLHAQLQSALAGLGHEIRTGVRTLAEQLEVGIAKHIQKLVGVRESVLPEDAILPLMKFLEVELCYMNTNLVQENFSSLLTLLWTHTLTVLVEAAASQRSSSLASNRLKIALQNLEICFHAEGCGLPPKALHTATFQALQRDLELQAASSRELIRKYFCSRIQQQAETTSEELGAVTVKASYRASEQKLRVELLSASSLLPLDSNGSSDPFVQLTLEPRHEFPELAARETQKHKKDLHPLFDETFEFLVPAEPCRKAGACLLLTVLDYDTLGADDLEGEAFLPLREVPGLSGSEEPGEVPQTRLPLTYPAPNGDPILQLLEGRKGDREAQVFVRLRRHRAKQASQHALRPAP [UNC13D] | -0.0281 | 51.5 | 51.4 | -0.0257 | -0.00435 | 0.185
8 | MATNFLAHEKIWFDKFKYDDAERRFYEQMNGPVAGASRQENGASVILRDIARARENIQKSLAGSSGPGASSGTSGDHGELVVRIASLEVENQSLRGVVQELQQAISKLEARLNVLEKSSPGHRATAPQTQHVSPMRQVEPPAKKPATPAEDDEDDDIDLFGSDNEEEDKEAAQLREERLRQYAEKKAKKPALVAKSSILLDVKPWDDETDMAQLEACVRSIQLDGLVWGASKLVPVGYGIRKLQIQCVVEDDKVGTDLLEEEITKFEEHVQSVDIAAFNKI [EEF1D] | 0.332 | 50.6 | 50.6 | 0.255 | 1.79 | 2.76
9 | MATNWGSLLQDKQQLEELARQAVDRALAEGVLLRTSQEPTSSEVVSYAPFTLFPSLVPSALLEQAYAVQMDFNLLVDAVSQNAAFLEQTLSSTIKQDDFTARLFDIHKQVLKEGIAQTVFLGLNRSDYMFQRSADGSPALKQIEINTISASFGGLASRTPAVHRHVLSVLSKTKEAGKILSNNPSKGLALGIAKAWELYGSPNALVLLIAQEKERNIFDQRAIENELLARNIHVIRRTFEDISEKGSLDQDRRLFVDGQEIAVVYFRDGYMPRQYSLQNWEARLLLERSHAAKCPDIATQLAGTKKVQQELSRPGMLEMLLPGQPEAVARLRATFAGLYSLDVGEEGDQAIAEALAAPSRFVLKPQREGGGNNLYGEEMVQALKQLKDSEERASYILMEKIEPEPFENCLLRPGSPARVVQCISELGIFGVYVRQEKTLVMNKHVGHLLRTKAIEHADGGVAAGVAVLDNPYPV [GSS] | 0.238 | 58.6 | 58.6 | -0.0933 | -2.26 | -1.74
10 | MATPAGLERWVQDELHSVLGLSERHVAQFLIGTAQRCTSAEEFVQRLRDTDTLDLSGPARDFALRLWNKVPRKAVVEKPARAAEREARALLEKNRSYRLLEDSEESSEETVSRAGSSLQKKRKKRKHLRKKREEEEEEEASEKGKKKTGGSKQQTEKPESEDEWERTERERLQDLEERDAFAERVRQRDKDRTRNVLERSDKKAYEEAQKRLKMAEEDRKAMVPELRKKSRREYLAKREREKLEDLEAELADEEFLFGDVELSRHERQELKYKRRVRDLAREYRAAGEQEKLEATNRYHMPKETRGQPARAVDLVEEESGAPGEEQRRWEEARLGAASLKFGARDAASQEPKYQLVLEEEETIEFVRATQLQGDEEPSAPPTSTQAQQKESIQAVRRSLPVFPFREELLAAIANHQVLIIEGETGSGKTTQIPQYLFEEGYTNKGMKIACTQPRRVAAMSVAARVAREMGVKLGNEVGYSIRFEDCTSERTVLRYMTDGMLLREFLSEPDLASYSVVMVDEAHERTLHTDILFGLIKDVARFRPELKVLVASATMDTARFSTFFDDAPVFRIPGRRFPVDIFYTKAPEADYLEACVVSVLQIHVTQPPGDILVFLTGQEEIEAACEMLQDRCRRLGSKIRELLVLPIYANLPSDMQARIFQPTPPGARKVVVATNIAETSLTIEGIIYVLDPGFCKQKSYNPRTGMESLTVTPCSKASANQRAGRAGRVAAGKCFRLYTAWAYQHELEETTVPEIQRTSLGNVVLLLKSLGIHDLMHFDFLDPPPYETLLLALEQLYALGALNHLGELTTSGRKMAELPVDPMLSKMILASEKYSCSEEILTVAAMLSVNNSIFYRPKDKVVHADNARVNFFLPGGDHLVLLNVYTQWAESGYSSQWCYENFVQFRSMRRARDVREQLEGLLERVEVGLSSCQGDYIRVRKAITAGYFYHTARLTRSGYRTVKQQQTVFIHPNSSLFEQQPRWLLYHELVLTTKEFMRQVLEIESSWLLEVAPHYYKAKELEDPHAKKMPKKIGKTREELG [DHX16] | -0.394 | 49.9 | 50.8 | 0.00704 | 1.68 | 2.22
